Consider 1 molecule from US20240018260A1 (AMUNIX PHARMACEUTICALS, published 2024).

For assay [1], the target named is T1, recombinant human EpCAM (rhEpCAM) (human, UniProt P16422 24-265).
T1 construct: Bought recombinant protein coated on the ELISA plate
T1 sequence (looked up): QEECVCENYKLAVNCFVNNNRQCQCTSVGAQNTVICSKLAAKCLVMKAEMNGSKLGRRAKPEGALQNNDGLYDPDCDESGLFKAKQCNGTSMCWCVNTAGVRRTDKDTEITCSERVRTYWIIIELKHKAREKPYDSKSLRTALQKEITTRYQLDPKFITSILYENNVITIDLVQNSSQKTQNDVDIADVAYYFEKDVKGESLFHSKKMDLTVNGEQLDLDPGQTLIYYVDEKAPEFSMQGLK
The assay is described as follows: sandwich ELISA: rhEpCAM coated on plate, detection with biotin-conjugated protein L. On the procedure:
(§1) The binding specificity of an anti-EpCAM×anti-CD3 ProTIA (e.g. AC1476) was evaluated in conjunction with the control ProTIA compositions anti-CEA×anti-CD3 ProTIA (e.g. AC1432) and anti-HER2×anti-CD3 ProTIA (e.g. AC1408), in a target antigen/biotin-conjugated protein-L sandwich ELISA. Both the anti-CEA×anti-CD3 ProTIA (AC1432) and the anti-HER2×anti-CD3 ProTIA (AC1408) bear the same anti-CD3 scFv component as the anti-EpCAM×anti-CD3 ProTIA (AC1476) albeit with different targeting component. In the ELISA binding assay, recombinant human EpCAM (rhEpCAM) (R&D Systems cat #960-EP-50), recombinant human CEA (Abcam cat #ab742) and recombinant human HER2 (AcroBiosystems cat #HE2-H525) were coated on a 96-well, flat-bottomed plate at a concentration of 0.1 microg/100 microL. After overnight incubation at 4° C., the assay plate was washed and blocked with 3% bovine serum albumin (BSA) for 1 h at room temperature. The plate was washed again followed by the introduction of a dose range (0.0007 to 0.5 nM, achieved with a 1:3 fold serial dilution scheme from a starting concentration of 0.5 nM) of protease-treated anti-EpCAM×anti-CD3 ProTIA (e.g. AC1476) to EpCAM-coated wells, CEA-coated wells and HER2-coated wells. […] After desired color intensity was reached, 0.2 N sulfuric acid was added to stop the reaction and absorbance (OD) was measured at 450 nm using a spectrophotometer. […]

Assay [2] addresses T2, human EpCAM on EpCAM positive human carcinoma cells (SW480, SK-OV-3) (human, UniProt P16422 24-314).
T2 sequence (looked up): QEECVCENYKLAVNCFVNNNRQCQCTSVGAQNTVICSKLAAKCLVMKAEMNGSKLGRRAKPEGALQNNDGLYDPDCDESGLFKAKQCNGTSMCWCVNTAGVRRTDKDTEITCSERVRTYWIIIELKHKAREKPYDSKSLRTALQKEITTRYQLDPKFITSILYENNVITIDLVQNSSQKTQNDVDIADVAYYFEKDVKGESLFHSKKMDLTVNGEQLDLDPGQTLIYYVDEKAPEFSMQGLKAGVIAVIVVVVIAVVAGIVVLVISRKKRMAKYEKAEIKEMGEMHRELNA
Nature of the assay: cell-based or functional assay.

Assay [3] addresses human CD3 on purified human CD3 positive T cells (human, UniProt P07766 23-207). Nature of the assay: cell-based or functional assay.
In a further assay the target is T3, recombinant human CEA (human, UniProt P06731 35-685, limits assumed).
T3 construct: Coated on the ELISA plate; also called CEA antigen
T3 sequence (looked up): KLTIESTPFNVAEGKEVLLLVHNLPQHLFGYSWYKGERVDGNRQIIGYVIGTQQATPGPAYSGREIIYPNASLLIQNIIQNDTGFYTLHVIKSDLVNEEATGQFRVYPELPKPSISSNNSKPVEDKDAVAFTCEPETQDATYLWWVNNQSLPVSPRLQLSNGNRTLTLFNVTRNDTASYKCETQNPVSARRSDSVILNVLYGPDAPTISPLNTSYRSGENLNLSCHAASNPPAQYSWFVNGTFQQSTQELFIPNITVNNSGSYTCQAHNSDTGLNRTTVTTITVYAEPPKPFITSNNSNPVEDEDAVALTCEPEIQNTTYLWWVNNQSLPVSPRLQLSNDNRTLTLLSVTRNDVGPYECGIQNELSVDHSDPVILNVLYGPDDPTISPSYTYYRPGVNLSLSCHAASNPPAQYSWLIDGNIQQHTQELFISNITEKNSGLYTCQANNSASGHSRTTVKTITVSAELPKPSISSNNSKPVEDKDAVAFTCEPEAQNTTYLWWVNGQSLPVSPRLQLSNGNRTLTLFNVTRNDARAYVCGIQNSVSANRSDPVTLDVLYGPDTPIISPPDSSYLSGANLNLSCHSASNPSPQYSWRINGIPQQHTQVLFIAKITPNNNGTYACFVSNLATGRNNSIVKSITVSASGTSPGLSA
The assay is described as follows: sandwich ELISA: antigen coated on plate, detection with biotin-conjugated protein L. The method, then: as §1

Another assay deals with T4, recombinant human HER2 (human, UniProt P04626 23-652).
T4 construct: Coated on the ELISA plate; also called HER2 antigen
Described as above. On the procedure:
as §1

Assay [4] deals with T1, recombinant human EpCAM (rhEpCAM). The assay is described as follows: sandwich ELISA: rhEpCAM coated on plate, detection with peroxidase-conjugated protein L. On the procedure: The binding capability of anti-EpCAM×anti-CD3 ProTIA composition was verified with an EpCAM/peroxidase-conjugated protein-L sandwich ELISA. In the ELISA binding assay, recombinant human EpCAM (rhEpCAM) (Sino BiologicalR&D Systems cat #10694-H08H960-EP-50) was coated on a 96-well, flat-bottomed plate at a concentration of 0.1 microg/100 microL. After overnight incubation at 4° C., the assay plate was washed and blocked with 3% bovine serum albumin (BSA) for 1 h at room temperature. The plate was washed again followed by the introduction of a dose range of non-cleavable anti-EpCAM×anti-CD3 ProTIA (i.e., a ProTIA without the release segment cleavage sequence and AC1484, a ProTIA chimeric polypeptide assembly composition) and protease-treated and protease-untreated anti-EpCAM×anti-CD3 ProTIA (e.g. AC1476). The dose range utilized for non-cleavable and protease-treated and untreated ProTIA was 0.0006 to 5 nM, achieved with a 1:6 fold serial dilution scheme from a starting concentration of 5 nM. The plate was allowed to incubate with shaking for 1 h at room temperature to allow the non-cleavable, protease-cleaved and uncleaved ProTIA to bind to the rhEpCAM coated on the plate. Unbound components were removed with a wash step and a peroxidase-conjugated protein L (PierceThermoFisher Scientific cat #32420) was added. After an appropriate incubation period that allowed protein-L to bind to the kappa light of the scFvs, any unbound reagent was removed by a wash step followed by the addition of tetramethylbenzidine (TMB) substrate to each well. TMB is a chromogenic substrate of peroxidase. After desired color intensity was reached, 0.2 N sulfuric acid was added to stop the reaction and absorbance (OD) was measured at 450 nm using a spectrophotometer. The intensity of the color is proportional to the concentration of non-cleavable, protease-treated and untreated anti-EpCAM×anti-CD3 ProTIA captured by the rhEpCAM/protein-L sandwich ELISA. The intensity of the color produced (measured OD) was plotted against protein concentration; and the concentration of non-cleavable, protease-cleaved and uncleaved anti-EpCAM×anti-CD3 ProTIA that gave half-maximal response (EC₅₀) was derived with a 4-parameter logistic regression equation using GraphPad prism software.

Assay [5] has as its target T5, recombinant human CD3 (rhCD3εδ) (human, UniProt P07766 23-126; P04234 22-105).
T5 chain: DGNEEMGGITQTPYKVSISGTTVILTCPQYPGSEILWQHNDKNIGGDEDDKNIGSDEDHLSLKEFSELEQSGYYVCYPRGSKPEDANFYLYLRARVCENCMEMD
The assay is described as follows: sandwich ELISA: rhCD3εδ coated on plate, detection with peroxidase-conjugated protein L.

B1: Protease-treated (MMP-9 cleaved) AC1476 anti-EpCAM×anti-CD3 ProTIA, released aEpCAM-aCD3 first portion (bispecific antibody)
chain: DIQMTQSPSSLSASVGDRVTITCRSTKSLLHSNGITYLYWYQQKPGKAPKLLIYQMSNLASGVPSRFSSSGSGTDFTLTISSLQPEDFATYYCAQNLEIPRTFGQGTKVEIKGATPPETGAETESPGETTGGSAESEPPGEGQVQLVQSGPGLVQPGGSVRISCAASGYTFTNYGMNWVKQAPGKGLEWMGWINTYTGESTYADSFKGRFTFSLDTSASAAYLQINSLRAEDTAVYYCARFAIKGDYWGQGTLLTVSSGGGGSDIQMTQSPSSLSASVGDRVTITCRASQDIRNYLNWYQQKPGKAPKLLIYYTSRLESGVPSRFSGSGSGTDYTLTISSLQPEDFATYYCQQGNTLPWTFGQGTKVEIKGATPPETGAETESPGETTGGSAESEPPGEGEVQLVESGGGLVQPGGSLRLSCAASGYSFTGYTMNWVRQAPGKGLEWVALINPYKGVSTYNQKFKDRFTISVDKSKNTAYLQMNSLRAEDTAVYYCARSGYYGDSDWYFDVWGQGTLVTVSSGTAEAASASGLSGRSDNHSPLG
notes: ESI-MS found 58,071 Da against a theoretical 58,067 Da; also called ProTIA-A; protease-treated anti-EpCAM×anti-CD3 ProTIA
Take B1: the EC50 turned out to be 0.11 nM in assay [1], 0.12 nM in assay [4] and 0.31 nM in assay [5]. Besides, the “EC50, LDH release cytotoxicity, PBMC:SK-OV-3 5:1” value in assay [2] was 0.003 nM. Also, the “EC50, LDH release cytotoxicity, purified human CD3 positive T cells:OVCAR-3 5:1” value in assay [3] worked out at 0.0003 nM. Moreover, the “EC50, LDH release cytotoxicity, purified human CD3 positive T cells:SK-OV-3 5:1” value in assay [3] worked out at 0.0024 nM. In addition, the binding result with recombinant human CEA and with recombinant human HER2 was “no binding (tested: 0.0007 to 0.5 nM (dose range tested))” in each case.
